Assay results published in patent publication WO2010064089A1.
Blank lines part the entries; values can stand above or below the binder they belong to.

Legend:
[1] = target: C-Met-Rluc and C-Met-K1100A-YFP co-expressed in a CHO stable cell line (c-Met dimerization BRET model) (R. reniformis), P08581; assay: cell-based or functional assay
[2] = target: C-Met-Rluc expressed with a mutated form of Gab1 fused to YFP in a CHO stable cell line (c-Met activation BRET model) (R. reniformis), P08581; assay: cell-based or functional assay

inhibition of the HGF induced BRET signal, c-Met dimerization model [1]: 62.4%
inhibition of the HGF effect, c-Met activation BRET model [2]: 66.3%
B1: [224G11][IgG2 chim] (antibody)
heavy: EVQLQQSGPELVKPGASVKISCKTSGYIFTAYTMHWVRQSLGESLDWIGGIKPNNGLANYNQKFKGKATLTVDKSSSTAYMDLRSLTSEDSAVYYCARSEITTEFDYWGQGTALTVSSASTKGPSVFPLAPCSRSTSESTAALGCLVKDYFPEPVTVSWNSGALTSGVHTFPAVLQSSGLYSLSSVVTVPSSNFGTQTYTCNVDHKPSNTKVDKTVERKCCVECPPCPAPPVAGPSVFLFPPKPKDTLMISRTPEVTCVVVDVSHEDPEVQFNWYVDGVEVHNAKTKPREEQFNSTFRVVSVLTVVHQDWLNGKEYKCKVSNKGLPAPIEKTISKTKGQPREPQVYTLPPSREEMTKNQVSLTCLVKGFYPSDIAVEWESNGQPENNYKTTPPMLDSDGSFFLYSKLTVDKSRWQQGNVFSCSVMHEALHNHYTQKSLSLSPG
light: DIVLTQSPASLAVSLGQRATISCRASESVDSYANSFMHWYQQKPGQPPKLLIYRASNLESGIPARFSGSGSRTDFTLTINPVEADDVATYYCQQSKEDPLTFGSGTKLEMKRTVAAPSVFIFPPSDEQLKSGTASVVCLLNNFYPREAKVQWKVDNALQSGNSQESVTEQDSKDSTYSLSSTLTLSKADYEKHKVYACEVTHQGLSSPVTKSFNRGEC

BRET signal with Mab alone, c-Met dimerization model (% of HGF-induced signal) [1]: 21.3
inhibition of the HGF induced BRET signal, c-Met dimerization model [1]: 59.4%
inhibition of the HGF induced BRET signal, c-Met activation model [2]: 56.4%
B2: murine 224G11 Mab (antibody, mouse IgG1, V domains shown)
VH: EVQLQQSGPELVKPGASVKISCKTSGYIFTAYTMHWVRQSLGESLDWIGGIKPNNGLANYNQKFKGKATLTVDKSSSTAYMDLRSLTSEDSAVYYCARSEITTEFDYWGQGTALTVSS
VL: DIVLTQSPASLAVSLGQRATISCRASESVDSYANSFMHWYQQKPGQPPKLLIYRASNLESGIPARFSGSGSRTDFTLTINPVEADDVATYYCQQSKEDPLTFGSGTKLEMKR

BRET signal with Mab alone, c-Met dimerization model (% of HGF-induced signal) [1]: 46.6
inhibition of the HGF induced BRET signal, c-Met dimerization model [1]: 28.9%
BRET signal with Mab alone, c-Met activation model (% of the HGF induced signal) [2]: 32.9
inhibition of the HGF induced BRET signal, c-Met activation model [2]: 34.5%
B3: [224G11]chim (antibody, human IgG1, V domains shown)
VH: B2 VH
VL: B2 VL

inhibition of the HGF induced c-Met dimerization BRET signal [1]: 52.5%
BRET signal with Mab alone, c-Met activation model [2]: -2%
inhibition of the HGF induced activation BRET signal [2]: 53.2%
B4: [224G11][MMCH chim] (antibody, human IgG1, V domains shown)
VH: B2 VH
VL: B2 VL

inhibition of the HGF induced c-Met dimerization BRET signal [1]: 61.8%
BRET signal with Mab alone, c-Met activation model [2]: 5.1%
inhibition of the HGF induced activation BRET signal [2]: 59.7%
B5: [224G11][MH chim] (antibody, human IgG1, V domains shown)
VH: B2 VH
VL: B2 VL

inhibition of the HGF induced c-Met dimerization BRET signal [1]: 64.4%
BRET signal with Mab alone, c-Met activation model [2]: 7.6%
inhibition of the HGF induced activation BRET signal [2]: 64.4%
B6: [224G11][MUP9H chim] (antibody, human IgG1, V domains shown)
VH: B2 VH
VL: B2 VL
